Data as given in patent US20220251236A1 (Boehringer Ingelheim, published 2022).

T1: Human DLL3-His (human, UniProt Q9NYJ7 27-492)
T1 construct: also called huDLL3-His; hu DLL3
T1 sequence: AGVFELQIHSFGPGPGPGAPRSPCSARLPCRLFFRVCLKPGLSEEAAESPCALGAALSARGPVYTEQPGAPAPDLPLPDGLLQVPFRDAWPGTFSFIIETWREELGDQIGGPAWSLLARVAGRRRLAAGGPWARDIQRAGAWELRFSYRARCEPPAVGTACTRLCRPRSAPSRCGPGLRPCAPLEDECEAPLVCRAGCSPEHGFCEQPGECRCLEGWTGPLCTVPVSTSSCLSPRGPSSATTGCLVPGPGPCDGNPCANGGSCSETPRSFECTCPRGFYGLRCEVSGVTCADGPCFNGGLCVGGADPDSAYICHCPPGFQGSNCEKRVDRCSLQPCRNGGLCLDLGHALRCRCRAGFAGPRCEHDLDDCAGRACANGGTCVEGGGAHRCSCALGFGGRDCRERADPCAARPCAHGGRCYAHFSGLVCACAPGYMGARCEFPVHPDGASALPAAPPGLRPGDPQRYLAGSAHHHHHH

T2: EGF3+4
T2 construct: also called Hu DLL3 EGF3+4 on HEK293 cells
T2 membrane-anchored DLL3 subdomain construct: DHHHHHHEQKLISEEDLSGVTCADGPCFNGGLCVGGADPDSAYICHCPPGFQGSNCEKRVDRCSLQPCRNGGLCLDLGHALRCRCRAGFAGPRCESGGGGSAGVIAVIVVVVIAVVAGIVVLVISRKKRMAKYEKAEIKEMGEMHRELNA

T3: EGF4+5
T3 construct: also called Hu DLL3 EGF4+5 on HEK293 cells
T3 membrane-anchored DLL3 subdomain construct: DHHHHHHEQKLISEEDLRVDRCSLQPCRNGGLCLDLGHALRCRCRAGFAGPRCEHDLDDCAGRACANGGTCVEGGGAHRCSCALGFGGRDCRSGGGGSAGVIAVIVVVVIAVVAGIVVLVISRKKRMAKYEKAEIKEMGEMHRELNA

B1: DLL3#3/CD3#1 (bispecific antibody, human IgG1, kappa, lambda, L234A L235A)
chain 1: DIQMTQSPSAMSASVGDRVTITCRASQGISNYLVWFQQKPGKAPKRLIYAVSSLYSGVPSRFSGSGSGTEFTLTISSLQPEDFATYYCLQHDSYPYTFGQGTKLEIKRTVAAPSVFIFPPSDEQLKSGTASVVCLLNNFYPREAKVQWKVDNALQSGNSQESVTEQDSKDSTYSLSSTLTLSKADYEKHKVYACEVTHQGLSSPVTKSFNRGECGGGGSEGKSSGSGSESKSTEGKSSGSGSESKSTGGGGSQVQLVQSGAEVKKPGASVKVSCKASGYTFTSYYVHWVRQAPGQGLEWMVIINPGGGTTSYAQKFLGRVTMTRDTSTNTVYMELKSLRSEDTAVYYCARGEAVTGNYFYYGMDVWGQGTTVTVSSASTKGPSVFPLAPSSKSTSGGTAALGCLVKDYFPEPVTVSWNSGALTSGVHTFPAVLQSSGLYSLSSVVTVPSSSLGTQTYICNVNHKPSNTKVDKRVEPKSCDKTHTCPPCPAPEAAGGPSVFLFPPKPKDTLMISRTPEVTCVVVDVSHEDPEVKFNWYVDGVEVHNAKTKPREEQYNSTYRVVSVLTVLHQDWLNGKEYKCKVSNKALPAPIEKTISKAKGQPREPQVYTLPPSREEMTKNQVSLWCLVKGFYPSDIAVEWESNGQPENNYKTTPPVLDSDGSFFLYSKLTVDKSRWQQGNVFSCSVMHEALHNHYTQKSLSLSPG
chain 2: EAVVTQEPSLTVSPGGTVTLTCRSSTGAVTTSNYANWVQEKPGQLPRGLIGGTNKRAPWVPARFSGSLLGGKAALTLSGAQPEDEAEYFCALWYSNLWVFGGGTKLTVLGQPKAAPSVTLFPPSSEELQANKATLVCLISDFYPGAVKVAWKADGSPVNTGVETTTPSKQSNNKYAASSYLSLTPEQWKSHRSYSCQVTHEGSTVEKTVAPAECSGGGGSEGKSSGSGSESKSTEGKSSGSGSESKSTGGGGSEVQLVESGGGLVQPGGSLKLSCAASGFTFNTYAMNWVRQAPGKGLEWVARIRSKYNNYATYYADSVKDRFTISRDDSKNTAYLQMNNLKTEDTAVYYCVRHGNFGNSYVSWFAYWGQGTLVTVSAASTKGPSVFPLAPSSKSTSGGTAALGCLVKDYFPEPVTVSWNSGALTSGVHTFPAVLQSSGLYSLSSVVTVPSSSLGTQTYICNVNHKPSNTKVDKRVEPKSCDKTHTCPPCPAPEAAGGPSVFLFPPKPKDTLMISRTPEVTCVVVDVSHEDPEVKFNWYVDGVEVHNAKTKPREEQYNSTYRVVSVLTVLHQDWLNGKEYKCKVSNKALPAPIEKTISKAKGQPREPQVYTLPPSREEMTKNQVSLSCAVKGFYPSDIAVEWESNGQPENNYKTTPPVLDSDGSFFLVSKLTVDKSRWQQGNVFSCSVMHEALHNRFTQKSLSLSPG
notes: Heterodimer of one DLL3 chain and one CD3 chain (scFab-Fc, knob-in-hole)
B2: DLL3#4/CD3#1 (bispecific antibody, human IgG1, kappa, lambda, L234A L235A)
chain 1: not shown
chain 2: B1 chain 2
notes: as for B1

Experiments:
[1] = target: T1, Human DLL3-His; test: SPR (ProteOn XPR36), bispecific captured on protein A/G, DLL3 as analyte, Example 4A; Table 2A (Example 4A SPR run)
Procedure: The binding affinity of purified DLL3/CD3 bispecific constructs for recombinant human and cyno DLL3-ECD and Fc-fusion proteins of human and cyno CD3 εγ subunits was determined by Surface Plasmon Resonance (SPR), using a ProteOn XPR36 instrument (Bio-Rad). The running buffer and all dilutions (except where stated) were done in PBS-T-EDTA. The GLM sensor chip (Bio-Rad) was normalized and pre-conditioned as per the manufacturer's recommendations. The sensor chip was activated with equal mixture of EDC/s-NHS in the horizontal direction for 300 sec at a flow rate of 30 ul/min and immobilized with protein A/G (20 ug/ml in 10 mM acetate pH 4.5) in the horizontal direction for 300 sec at a flowrate of 30 ul/min resulting in ˜5000 RU of protein A/G on the surface. The sensor chip was deactivated with 1M ethanolamine HCl in the horizontal direction for 300 sec at a flowrate of 30 μl/min.
For binding kinetic determination to DLL3, bispecific molecules were captured individually on the protein A/G surface vertically for 250 sec at a flowrate of 25 μl/min. The baseline was stabilized by injecting PBS-T-EDTA for 60 sec at a flowrate of 40 μl/min horizontally. The analyte (hu DLL3 or cy DLL3) was injected horizontally over the captured antibody for 600 sec at a flowrate of 40 μl/min and a dissociation for 2700 sec. […]

[2] = target: T2, EGF3+4; test: flow cytometry on HEK293 cells expressing the DLL3 subdomain construct, 1.6 nM binder, PE anti-human secondary, control: secondary antibody only
Summary of the method: (§1)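 Binders tested on HEK293 cells displaying the DLL3 subdomain construct; bound molecules detected by flow cytometry using PE-conjugated anti-human secondary antibody. Negative control: cells with secondary antibody only.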

[3] = target: T3, EGF4+5; test: as above
Summary of the method: as §1

Row | Binder | Kd [1] [nM] | binding result [2] | binding result [3]
1 | B1 | < 0.01 | – | –
2 | B2 | – | binds | binds
